Experimental data reported in patent US6783936.

Target: one CLL cell line
Assay: avidity constant derived from LD50 of complement dependent cytotoxicity on CLL cells

Substance: Lym-1 antibody
- avidity: 1.1e+08
